Where a chain is given by its changes, count along the chain named.
T1: CD81 (UniProt P60033 1-236, limits assumed)
T1 construct: whole, on cells; also called CD81 receptor
T1 sequence (looked up): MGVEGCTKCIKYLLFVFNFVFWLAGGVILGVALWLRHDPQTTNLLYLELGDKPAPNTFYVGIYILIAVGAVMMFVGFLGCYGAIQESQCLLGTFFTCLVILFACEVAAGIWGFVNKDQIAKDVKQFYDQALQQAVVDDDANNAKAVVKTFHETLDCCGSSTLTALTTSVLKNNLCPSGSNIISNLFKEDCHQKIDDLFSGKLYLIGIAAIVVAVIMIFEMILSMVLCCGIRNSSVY

B1: CD81K13 HC 01-hVH_1_f / LC 05-hVK_1_39 (antibody, V domains shown)
VH: EVQLVQSGAEVKKPGATVKISCKVSGYTFTDSYMHWVQQAPGKGLEWMGRIDTGNGNVKFDPKFQGRVTITADTSTDTAYMELSSLRSEDTAVYYCAPYGYGFHSWGQGTLVTVSS
VL: DIQMTQSPSSLSASVGDRVTITCRASENIYRTLAWYQQKPGKAPKLLIYAATTLASGVPSRFSGSGSGTDFTLTISSLQPEDFATYYCQHFWGTPWTFGQGTKVEIK
notes: human constant region
B2: CD81K13 HC 01-hVH_1_f / LC 5b-hVK_1_39 (antibody, V domains shown)
VH: B1 VH
VL: B1 VL with A50G, S56D
notes: human constant region
B3: CD81K13 HC 01-hVH_1_f / LC 5b-hVK_1_39-GA (antibody, V domains shown)
VH: B1 VH
VL: B1 VL with A50G, S56D
notes: human constant region
B4: CD81K13 HC 01-hVH_1_f / LC 06-hVK_1_39 (antibody, V domains shown)
VH: B1 VH
VL: B1 VL with A84G
notes: human constant region
B5: CD81K13 HC 01-hVH_1_f / LC 07-hVK_1_27 (antibody, V domains shown)
VH: B1 VH
VL: B1 VL with A43V, F83V, A84G, H90K
notes: human constant region
B6: CD81K13 HC 02-hVH_1_3 / LC CD81K13 (antibody, V domains shown)
VH: QVQLVQSGAEVKKPGASVKVSCKASGYTFTDSYMHWVRQAPGQRLEWMGRIDTGNGNTKYSQKFQGRVTITTDTSASTAYMELSSLRSEDTAVYYCAPYGYGFHSWGQGTLVTVSS
VL: DIQMTQSPASLSVSVGETVTITCRASENIYRTLAWYLQKQGKSPQLLVYGATTLADGVPSRFSGSGSGTQYYLKINSLQSEDFGTYHCQHFWGTPWTFGGGTKVEIK
notes: human constant region
B7: CD81K13 HC 02-hVH_1_3 / LC 01-hVK_3_15 (antibody, V domains shown)
VH: B6 VH
VL: EIVMTQSPATLSVSPGERATLSCRASENIYRTLAWYQQKPGQAPRLLIYGATTRATGIPARFSGSGSGTEFTLTISSLQSEDFGVYYCQHFWGTPWTFGQGTKVEIK
notes: human constant region
B8: CD81K13 HC 02-hVH_1_3 / LC 1b-hVK_3_15 (antibody, V domains shown)
VH: B6 VH
VL: B7 VL with R54L, T56D, G84A
notes: human constant region
B9: CD81K13 HC 02-hVH_1_3 / LC 1c-hVK_3_15 (antibody, V domains shown)
VH: B6 VH
VL: B7 VL with R54L, T56D
notes: human constant region
B10: CD81K13 HC 02-hVH_1_3 / LC 03-hVK_1_9 (antibody, V domains shown)
VH: B6 VH
VL: B1 VL with M4L, S10F, D70E
notes: human constant region
B11: CD81K13 HC 02-hVH_1_3 / LC 04-hVK_1_9 (antibody, V domains shown)
VH: B6 VH
VL: B1 VL with M4L, S10F, D70E, A84G
notes: human constant region
B12: CD81K13 HC 02-hVH_1_3 / LC 05-hVK_1_39 (antibody, V domains shown)
VH: B6 VH
VL: B1 VL
notes: human constant region
B13: CD81K13 HC 02-hVH_1_3 / LC 5b-hVK_1_39 (antibody, V domains shown)
VH: B6 VH
VL: B1 VL with A50G, S56D
notes: human constant region
B14: CD81K13 HC 02-hVH_1_3 / LC 5b-hVK_1_39-GA (antibody, V domains shown)
VH: B6 VH
VL: B1 VL with A50G, S56D
notes: human constant region
B15: CD81K13 HC 02-hVH_1_3 / LC 06-hVK_1_39 (antibody, V domains shown)
VH: B6 VH
VL: B1 VL with A84G
notes: human constant region
B16: CD81K13 HC 05-hVH_1_69 / LC CD81K13 (antibody, V domains shown)
VH: QVQLVQSGAEVKKPGSSVKVSCKASGFNFKDSYLHWVRQAPGQGLEWMGRIDTGNGNVKFDPKFQGRVTITTDESTSTAYMELSSLRSEDTAVYYCVPYGYGFHSWGQGTLVTVSS
VL: B6 VL
notes: human constant region
B17: CD81K13 HC 03-hVH_1_69 / LC CD81K13 (antibody, V domains shown)
VH: B16 VH with F60Y, D61A, P62Q, T72A, V97A
VL: B6 VL
notes: human constant region
B18: CD81K13 HC 5b-hVH_1_69 / LC CD81K13 (antibody, V domains shown)
VH: B16 VH with V11L, K12V
VL: B6 VL
notes: human constant region
B19: CD81K13 HC 5b-hVH_1_69-GA / LC CD81K13 (antibody, V domains shown)
VH: B16 VH with V11L, K12V
VL: B6 VL
notes: human constant region
B20: CD81K13 HC 06-hVH_1_3 / LC CD81K13 (antibody, V domains shown)
VH: B6 VH with T30K, M34L, T58V, Y60F, S61D, Q62P
VL: B6 VL
notes: human constant region
B21: CD81K13 HC 07-hVH_1_3 / LC CD81K13 (antibody, V domains shown)
VH: B16 VH with S16A, F27Y, N28T, E74T, T76A, V97A
VL: B6 VL
notes: human constant region
B22: CD81K13 HC 05-hVH_1_69 / LC 1c-hVK_3_15 (antibody, V domains shown)
VH: B16 VH
VL: B7 VL with R54L, T56D
notes: human constant region
B23: CD81K13 HC 03-hVH_1_69 / LC 01-hVK_3_15 (antibody, V domains shown)
VH: B16 VH with F60Y, D61A, P62Q, T72A, V97A
VL: B7 VL
notes: human constant region
B24: CD81K13 HC 03-hVH_1_69 / LC 1b-hVK_3_15 (antibody, V domains shown)
VH: B16 VH with F60Y, D61A, P62Q, T72A, V97A
VL: B7 VL with R54L, T56D, G84A
notes: human constant region
B25: CD81K13 HC 03-hVH_1_69 / LC 1c-hVK_3_15 (antibody, V domains shown)
VH: B16 VH with F60Y, D61A, P62Q, T72A, V97A
VL: B7 VL with R54L, T56D
notes: human constant region
B26: CD81K13 HC 05-hVH_1_69 / LC 01-hVK_3_15 (antibody, V domains shown)
VH: B16 VH
VL: B7 VL
notes: human constant region
B27: CD81K13 HC 05-hVH_1_69 / LC 1b-hVK_3_15 (antibody, V domains shown)
VH: B16 VH
VL: B7 VL with R54L, T56D, G84A
notes: human constant region
B28: CD81K13 HC 5b-hVH_1_69 / LC 01-hVK_3_15 (antibody, V domains shown)
VH: B16 VH with V11L, K12V
VL: B7 VL
notes: human constant region
B29: CD81K13 HC 5b-hVH_1_69 / LC 1b-hVK_3_15 (antibody, V domains shown)
VH: B16 VH with V11L, K12V
VL: B7 VL with R54L, T56D, G84A
notes: human constant region
B30: CD81K13 HC 5b-hVH_1_69 / LC 1c-hVK_3_15 (antibody, V domains shown)
VH: B16 VH with V11L, K12V
VL: B7 VL with R54L, T56D
notes: human constant region
B31: CD81K13 HC 5b-hVH_1_69-GA / LC 01-hVK_3_15 (antibody, V domains shown)
VH: B16 VH with V11L, K12V
VL: B7 VL
notes: human constant region
B32: CD81K13 HC 5b-hVH_1_69-GA / LC 1b-hVK_3_15 (antibody, V domains shown)
VH: B16 VH with V11L, K12V
VL: B7 VL with R54L, T56D, G84A
notes: human constant region
B33: CD81K13 HC 5b-hVH_1_69-GA / LC 1c-hVK_3_15 (antibody, V domains shown)
VH: B16 VH with V11L, K12V
VL: B7 VL with R54L, T56D
notes: human constant region
B34: CD81K13 HC 06-hVH_1_3 / LC 01-hVK_3_15 (antibody, V domains shown)
VH: B6 VH with T30K, M34L, T58V, Y60F, S61D, Q62P
VL: B7 VL
notes: human constant region
B35: CD81K13 HC 06-hVH_1_3 / LC 1b-hVK_3_15 (antibody, V domains shown)
VH: B6 VH with T30K, M34L, T58V, Y60F, S61D, Q62P
VL: B7 VL with R54L, T56D, G84A
notes: human constant region
B36: CD81K13 HC 06-hVH_1_3 / LC 1c-hVK_3_15 (antibody, V domains shown)
VH: B6 VH with T30K, M34L, T58V, Y60F, S61D, Q62P
VL: B7 VL with R54L, T56D
notes: human constant region
B37: CD81K13 HC 07-hVH_1_3 / LC 01-hVK_3_15 (antibody, V domains shown)
VH: B16 VH with S16A, F27Y, N28T, E74T, T76A, V97A
VL: B7 VL
notes: human constant region
B38: CD81K13 HC 07-hVH_1_3 / LC 1b-hVK_3_15 (antibody, V domains shown)
VH: B16 VH with S16A, F27Y, N28T, E74T, T76A, V97A
VL: B7 VL with R54L, T56D, G84A
notes: human constant region
B39: CD81K13 HC 07-hVH_1_3 / LC 1c-hVK_3_15 (antibody, V domains shown)
VH: B16 VH with S16A, F27Y, N28T, E74T, T76A, V97A
VL: B7 VL with R54L, T56D
notes: human constant region
B40: CD81K13 HC 05-hVH_1_69 / LC 05-hVK_1_39 (antibody, V domains shown)
VH: B16 VH
VL: B1 VL
notes: human constant region
B41: CD81K13 HC 03-hVH_1_69 / LC 03-hVK_1_9 (antibody, V domains shown)
VH: B16 VH with F60Y, D61A, P62Q, T72A, V97A
VL: B1 VL with M4L, S10F, D70E
notes: human constant region
B42: CD81K13 HC 03-hVH_1_69 / LC 04-hVK_1_9 (antibody, V domains shown)
VH: B16 VH with F60Y, D61A, P62Q, T72A, V97A
VL: B1 VL with M4L, S10F, D70E, A84G
notes: human constant region

Biological target: T1, CD81
Assay: cell ELISA;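 note: antibody binding to HuH7 cells expressing CD81 versus a CD81-negative HuH7 control line, bound antibody detected by secondary reagent, absorbance at 450 nm with 620 nm reference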

| Binder | ELISA data |
| --- | --- |
| B1 | 0.458 |
| B2 | 0.89 |
| B3 | 0.848 |
| B4 | 0.822 |
| B5 | 0.086 |
| B6 | 0.585 |
| B7 | 0.314 |
| B8 | 0.347 |
| B9 | 0.283 |
| B10 | 0.13 |
| B11 | 0.163 |
| B12 | 0.161 |
| B13 | 0.29 |
| B14 | 0.247 |
| B15 | 0.251 |
| B16 | 0.94 |
| B17 | 0.787 |
| B18 | 0.813 |
| B19 | 0.935 |
| B20 | 0.447 |
| B21 | 0.572 |

| Binder | ELISA data |
| --- | --- |
| B22 | 0.767 |
| B23 | 0.649 |
| B24 | 0.403 |
| B25 | 0.252 |
| B26 | 0.684 |
| B27 | 0.624 |
| B28 | 0.749 |
| B29 | 0.646 |
| B30 | 0.701 |
| B31 | 0.739 |
| B32 | 0.648 |
| B33 | 0.794 |
| B34 | 0.547 |
| B35 | 0.394 |
| B36 | 0.34 |
| B37 | 0.459 |
| B38 | 0.367 |
| B39 | 0.337 |
| B40 | 0.91 |
| B41 | 0.208 |
| B42 | 0.188 |

Source: patent US20200377590A1 (Hoffmann-La Roche, published 2020)
